Test results as given in patent US20260234242A1 (HAINAN SIMCERE ZAIMING PHARMACEUTICAL, published 2026).

T1: human CDH6 on tumor cells (OVCAR3 cells, PA-1 cells) (human, UniProt P55285 54-790)
T1 sequence: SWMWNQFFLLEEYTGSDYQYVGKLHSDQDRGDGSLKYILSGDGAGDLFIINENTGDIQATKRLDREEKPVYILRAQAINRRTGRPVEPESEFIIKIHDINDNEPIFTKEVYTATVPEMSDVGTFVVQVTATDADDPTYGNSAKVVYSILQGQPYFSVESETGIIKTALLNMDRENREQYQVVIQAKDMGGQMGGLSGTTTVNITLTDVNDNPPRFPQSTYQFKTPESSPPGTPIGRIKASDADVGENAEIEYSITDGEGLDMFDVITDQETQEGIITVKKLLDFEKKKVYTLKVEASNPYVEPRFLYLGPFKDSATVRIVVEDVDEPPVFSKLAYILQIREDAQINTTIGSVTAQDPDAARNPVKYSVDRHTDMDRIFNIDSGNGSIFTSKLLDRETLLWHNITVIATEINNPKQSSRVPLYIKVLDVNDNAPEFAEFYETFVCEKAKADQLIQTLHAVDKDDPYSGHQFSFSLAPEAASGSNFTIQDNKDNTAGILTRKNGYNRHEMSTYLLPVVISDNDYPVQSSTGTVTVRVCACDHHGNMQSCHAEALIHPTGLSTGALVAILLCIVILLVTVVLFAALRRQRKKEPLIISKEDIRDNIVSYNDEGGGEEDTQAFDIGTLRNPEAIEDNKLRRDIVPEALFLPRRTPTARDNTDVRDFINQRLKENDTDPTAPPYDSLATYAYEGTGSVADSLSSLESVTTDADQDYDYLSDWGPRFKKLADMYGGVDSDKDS

T2: human CDH6 with EC2 removed, on HEK293T cells (HEK293T-hCDH6-EC2 deletion) (human, UniProt P55285 54-790)
T2 construct: Signal peptide not removed here
T2 sequence: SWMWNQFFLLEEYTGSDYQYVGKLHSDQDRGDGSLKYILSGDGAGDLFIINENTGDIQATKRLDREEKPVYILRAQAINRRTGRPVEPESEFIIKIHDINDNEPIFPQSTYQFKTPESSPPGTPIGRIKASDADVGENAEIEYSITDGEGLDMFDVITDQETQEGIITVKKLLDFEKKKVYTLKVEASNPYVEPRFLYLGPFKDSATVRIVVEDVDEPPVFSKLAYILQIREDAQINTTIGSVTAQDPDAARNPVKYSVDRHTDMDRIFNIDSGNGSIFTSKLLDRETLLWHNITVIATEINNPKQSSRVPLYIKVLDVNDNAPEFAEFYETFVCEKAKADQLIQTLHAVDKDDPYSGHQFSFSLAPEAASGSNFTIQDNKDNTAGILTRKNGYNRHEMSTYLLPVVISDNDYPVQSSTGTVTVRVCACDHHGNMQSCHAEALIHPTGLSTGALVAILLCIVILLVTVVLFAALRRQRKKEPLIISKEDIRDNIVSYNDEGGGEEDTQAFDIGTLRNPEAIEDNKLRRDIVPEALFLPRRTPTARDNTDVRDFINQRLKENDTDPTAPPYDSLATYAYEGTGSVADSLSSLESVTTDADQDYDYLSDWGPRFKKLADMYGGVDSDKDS

T3: human CDH6 with EC1 removed, on HEK293T cells (HEK293T-hCDH6-EC1 deletion) (human, UniProt P55285 160-790)
T3 construct: Signal peptide not removed here
T3 sequence: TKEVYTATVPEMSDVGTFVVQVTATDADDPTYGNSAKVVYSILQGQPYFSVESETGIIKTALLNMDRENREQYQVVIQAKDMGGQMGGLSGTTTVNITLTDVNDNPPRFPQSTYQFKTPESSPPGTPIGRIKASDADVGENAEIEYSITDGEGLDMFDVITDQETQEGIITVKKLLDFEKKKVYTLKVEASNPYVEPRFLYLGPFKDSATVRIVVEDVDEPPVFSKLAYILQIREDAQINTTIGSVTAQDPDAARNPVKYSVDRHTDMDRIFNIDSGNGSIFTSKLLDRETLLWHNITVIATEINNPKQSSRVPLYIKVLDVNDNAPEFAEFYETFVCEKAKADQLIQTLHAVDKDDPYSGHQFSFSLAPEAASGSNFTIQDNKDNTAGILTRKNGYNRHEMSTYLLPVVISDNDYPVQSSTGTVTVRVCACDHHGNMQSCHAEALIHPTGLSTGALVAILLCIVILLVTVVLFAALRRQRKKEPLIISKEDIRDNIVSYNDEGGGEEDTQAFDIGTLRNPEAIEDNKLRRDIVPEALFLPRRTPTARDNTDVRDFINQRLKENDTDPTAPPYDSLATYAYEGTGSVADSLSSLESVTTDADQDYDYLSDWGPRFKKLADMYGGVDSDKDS


How the values were obtained:
[1] = biological target: T1, human CDH6 on tumor cells (OVCAR3 …); assay: FACS, OVCAR3 cells, 4° C. arm of endocytosis assay
Description: OVCAR3 cells were cultured until a confluence of 90% was reached, the medium was removed by pipetting, the cells were washed once with PBS, and then treated with an enzyme-free cell dissociation solution (Versene, purchased from Gibco, Cat. No. 15040-066) and the cells were collected. The cells were washed once with PBS, counted, resuspended to 2×10⁶ cells/mL in an FACS buffer (PBS+2% FBS), and then added to two 96-well plates at 50 μL/well. The chimeric antibodies were diluted with FACS buffer (PBS+2% FBS) to 10 μg/mL and separately added to the two 96-well plates at 50 μL/well, and the plates were incubated at 4° C. for 1 h. After the cells were washed 3 times with PBS, the cells were resuspended in an FACS buffer. One 96-well plate was incubated at 4° C. for 1 h, and the other 96-well plate was incubated at 37° C. for 1 h. […] After the plates were centrifuged and washed 2 times with PBS, the cells were resuspended in an FACS buffer. The mean fluorescence intensity (MFI) was measured using FACS Canton II (BD). The chimeric antibodies tested all had good endocytic activity.
Some of the antibodies were selected for the endocytic activity assay, and the method for assaying the endocytic activity of the humanized antibodies in OVCAR3 cells was the same as that in 2.4. The humanized antibodies tested all had good endocytic activity.

[2] = biological target: T2, human CDH6 with EC2 removed, on HEK293T …; assay: FACS, HEK293T-hCDH6-EC2 deletion cells
[3] = biological target: T3, human CDH6 with EC1 removed, on HEK293T …; assay: FACS, HEK293T-hCDH6-EC1 deletion cells

Binder | MFI_4° C. [1] [MFI] | Max MFI [2] [MFI] | binding result [3]
DS-H01L02 (antibody, human IgG1, kappa, V domains shown, Positive control, variable regions from WO2018212136A1; also called positive control anti-human CDH6 antibody) VH: EVQLVQSGAEVKKPGASVKVSCKASGYTFTRNFMHWVRQAPGQGLEWMGWIYPGDGETEYAQKFQGRVTITADTSTSTAYMELSSLRSEDTAVYYCARGVYGGFAGGYFDFWGQGTLVTVSS VL: DIQMTQSPSSLSASVGDRVTITCKASQNIYKNLAWYQQKPGKAPKLLIYDANTLQTGVPSRFSGSGSGSDFTLTISSLQPEDFATYFCQQYYSGWAFGQGTKVEIKR | 11400 | 8390 | 
CHI-CDH6-1 (antibody, human IgG1, kappa, V domains shown, also called CHI-hCDH6-1; CH1-CDH6-1) VH: QVQLQQPGAELVRPGSSVKLSCKASGYTFTNYWMHWVKQRPIEGLEWIGDIDPSHSETHYTQKFKDKATLTVDKSSSTAYMQLSSLTSEDSAVYYCARGDLGRFDYWGQGTTLTVSS VL: DIVLTQSPASLAVSLGQRATISCRASESVSIHGTHLMHWYQQKSGQPPKLLIYAASNLESGVPARFSGSGSETDFTFNIHPVEEEDAATYFCQQSFEDPWTFGGGTKLEIKR |  | 51300 | no binding
hCDH6-6-H2L2 (antibody, V domains shown, Humanized) VH: EVQLVQSGAEVKKPGASVKVSCKASGYTFTDYYMAWVRQAPGQGLEWMGYIFPNSGGTDYSQKFKGRVTLTVDKSTSTVYMELSSLRSEDTAVYYCARELGADYGDYYAMDHWGQGTTVTVSS VL: DIQMTQSPSSLSASVGDRVTITCRASENIDSYLAWYQQKPGKSPKLLVYSATLLADGVPSRFSGSGSGTDYTLTISSLQPEDFATYYCQHYYRTPPTFGQGTKLEIK | 20500 |  | 
CHI-CDH6-12 (antibody, human IgG1, kappa, V domains shown, also called CH1-CDH6-12; chimeric antibody of murine CDH6-12) VH: EVNLVESGGGLVQPGDSLTLSCSASGFTFTDYYMSWVRQFPGKALEWLALIRNKANSYTTEYSASVKGRFTISRDNSQSILYLQMNALRAEDSATYYCARDSYYSHDGFAYWGQGTLVTVSA VL: DIVLTQSPASLAVSLGQRATISCRASKSVSTSSYTYMHWYQQKPGQPPKLLIKFASYLESGVPARFSGSGSGTDFTLNIHPVEEEDAATYYCQHSREFPFTFGTGTKLEIKR |  | 11000 | 
CHI-CDH6-4 (antibody, human IgG1, kappa, V domains shown, also called CH1-CDH6-4; chimeric antibody of murine CDH6-4) VH: QVQLQQSGPELVKPGASVKISCKASGYAFSNFWMNWVKQRPGKGLEWIGWIYPGDGDTNYNGKFKDKATLTADKSSSTAYIQLSSLTSEDSAVYFCARLYDAWGFFDYWGQGTTLTVSS VL: QIVLTQSPAIMSASPGQKVTITCSASSSVNYMHWYQQKLGSSPKLWIYDKSKLAPGVPARFSGSGSGTSYSLTISSMEAEDAASYFCHQWSSYPPMTFGGGTKLEIKR |  | 75 | 
CHI-CDH6-14 (antibody, human IgG1, kappa, V domains shown, also called CHI-hCDH6-14; CH1-CDH6-14) VH: QIQLQQSGPELVKPGTSVKISCKASGYTFTDNYINWVRQRPGQGLEWIGWIYPGTGNSYYNEKFKGKATLTVDTSSSTAYMQFSSLTSEDSAVYLCASSYGDSFDYWGQGTTLTVSS VL: DIQMTQTTSSLSASLGNRVTISCRASQDIRNYLNWYQQKPDGTFKLLISYTSRLHSGVPSRFSGSGSGTDYSLTVSNLEPEDIATYYCQQYSQLPWTFGGGSRLEIKR |  | 814 | 
CHI-CDH6-5 (antibody, human IgG1, kappa, V domains shown, also called CH1-CDH6-5; chimeric antibody of murine CDH6-5) VH: QVQLQQSGAELVRPGTSVKMSCKAAEYTFTNYWIGWVKQRPGHGLEWIGDLYPGGDHANYNEKFEGKATLTADTSSSTAYMQLSSLTSEDSAIYYCARGMLTTGFDSWGQGTTLTVSS VL: DIVMSQSPSSLAVSAGEKVTMSCKSSQSLFNSRTRKNYLAWYQQKPGQSPKLLIYWASTRESGVPDRFTGSGSGTDFTLTISSVQAEDLAVYYCKQSYYLRTFGGGTKLEIKR |  | 343 | no binding
NOV0712 (antibody, human IgG1, kappa, V domains shown, Positive control, variable regions from WO2018212136A1; also called positive control anti-human CDH6 antibody) VH: QVQLLESGGGLVQPGGSLRLSCAASGFTFSSHGMHWVRQAPGKGLEWVSVISGSGSNTGYADSVKGRFTISRDNSKNTLYLQMNSLRAEDTAVYYCARQWGSYAFDSWGQGTLVTVSS VL: DIQMTQSPSSLSASVGDRVTITCRASQSISSYLNWYQQKPGKAPKLLIYAVSTLQSGVPSRFSGSGSGTDFTLTISSLQPEDFATYYCQQSGTFPPTTFGQGTKVEIKR | 13600 | 39100 | 
CHI-CDH6-7 (antibody, human IgG1, kappa, V domains shown, also called CH1-CDH6-7; chimeric antibody of murine CDH6-7) VH: EVKLVESGGGLVKPGGSLKVSCAASGFTFSDHGMAWVRQAPGKGPEWVAFISNLAYSIYYADTVTGRFTISRENAKNTLYLEMSSLRSEDTAMYYCARVYVKWYFDVWGAGTTVTVSS VL: DIQMTQSPASLSASVGETVTITCRASENIDSYLAWYQQKQGKSPQLLVFAATLLADGVPSRFSGSGSGTQYSLKINSLQSEDVARYYCQHYYSTPLTFGAGTKLELKR |  | 13000 | no binding
hCDH6-1-H2L3 (antibody, V domains shown, Humanized) VH: EVQLVQSGAEVKKPGSSVKVSCKASGYTFTNYWMHWVRQAPGQGLEWMGDIDPSHSETHYTQKFKDRVTITVDKSTSTAYMELSSLRSEDTAVYYCARGDLGRFDYWGQGTTVTVSS VL: DIQMTQSPSSLSASVGDRVTITCRASESVSIHGTHLMHWYQQKPGKPPKLLIYAASNLESGVPSRFSGSGSETDFTFTISSLQPEDIATYYCQQSFEDPWTFGGGTKVEIK | 20200 |  | 
CHI-CDH6-3 (antibody, human IgG1, kappa, V domains shown, also called CH1-CDH6-3; chimeric antibody of murine CDH6-3) VH: QVQLQQPGAELVKPGASVKLSCKASGYTFTSYWIHWVKQRPGQGLEWIGEINPSNGVTNCNENFKSKATLTVDKSSSTAYMQLSSLTSEDSAVYYCTIPNLLWWYFDVWGAGTTVTVSS VL: DIQMTQSPASLSVSVGETVTITCRASENIYSNLAWYQQKQGKSPQLLVYEATNLADGVPSRFSGSGSGTQYSLKINSLQSEDFGSYYCQHFWGTLWTFGGGTKLEIKR |  | 7550 | 
